Measurements as given in article doi:10.1101/2025.01.23.634444.

Biological target: VraS-H6x (recombinant full-length histidine kinase VraS of Staphylococcus aureus with C-terminal H6x tag) (Staphylococcus aureus USA300-TCH1516)
Experiment: SEC

Sequence of VraS-H6x (recombinant full-length histidine kinase VraS of Staphylococcus aureus with C-terminal H6x tag) (enzyme) (Q5HEN9 whole entry): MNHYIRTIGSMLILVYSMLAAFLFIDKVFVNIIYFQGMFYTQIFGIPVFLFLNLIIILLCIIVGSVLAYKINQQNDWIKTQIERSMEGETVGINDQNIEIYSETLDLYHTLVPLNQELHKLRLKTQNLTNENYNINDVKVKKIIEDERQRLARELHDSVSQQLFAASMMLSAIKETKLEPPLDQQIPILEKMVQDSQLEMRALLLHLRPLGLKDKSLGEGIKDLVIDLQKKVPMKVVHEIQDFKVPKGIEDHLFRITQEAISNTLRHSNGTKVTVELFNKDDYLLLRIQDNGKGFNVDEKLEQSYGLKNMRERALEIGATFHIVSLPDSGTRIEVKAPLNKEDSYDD

Q: “VraS-H6x (recombinant full-length histidine kinase VraS of Staphylococcus aureus with C-terminal H6x tag) (enzyme)” was tested. Which stoichiometry N did it give?
A: Its stoichiometry N is 2.
